B1: CPEB3 Ribozyme (parent)
chain: UAACAGGGGGCCACAGCAGAAGCGUUCACGUCGCAGCCCCUGUCAGAUUCUGGUGAAUCUGCGAAUUCUGCUGUAUAUCUC

Variants of: B1
Experiment: self-cleavage, relative activity (ratio to wild type); higher = more cleavage; in vitro, sequencing
In short: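 For each CPEB3 ribozyme variant, relative activity is its cleaved/total read fraction divided by the unmutated ribozyme's. Barcoded error-prone PCR libraries were transcribed by T7 RNA polymerase (5 hours, 37°C) and held in DNase I for 15 min before an EDTA stop, with cleavage occurring throughout. Template-switching reverse transcription and Illumina sequencing were used to read the RNAs. A 5-read minimum applied, and results are the mean of three batches.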

**Q.** Which self-cleavage does the source give for UAACAGGGGGCCACAGCAGAAGCGUUCACGUCGCAGCCCCUGUCAGAUUCUGGGGAUUCUGCGAAUUCUGCUGUAUAUCUC [U54G A57U] here?
**A.** 0.25

**Q.** Which self-cleavage does the source give for UAACAGGGGGCCACAGCAGAAGCGUUCACGUCGCAGCCCCUGUCAGAUUCUGGGGAGUCUGCGAAUUCUGCUGUAUAUCUC [U54G A57G] here?
**A.** 0.43

**Q.** With UAACAGGGGGCCACAGCAGAAGCGUUCACGUCGCAGCCCCUGUCAGAUUCUGGUAAAUCUACGAAUUCUGCUGUAUAUCUC [G55A G61A] as the variant, how does the self-cleavage read?
**A.** 0.39

**Q.** For UAACAGGGGGCCACAGCAGAAGCGUUCACGUCGCAGCCCCUGUCAGAUUCUGGGGAAUCUGCGAAUUCUGCUGUAUGUCUC [U54G A77G], which self-cleavage is on record?
**A.** 0.74

**Q.** With UAACAGGGGGCCACAGCAGAAGCGUUCACGUCGCAGCCCCUGUCAGAUUCUGGGGAAUCUGCGAAUUCUGCUGUAUAUAUC [U54G C79A] as the variant, how does the self-cleavage read?
**A.** 1.18

**Q.** With UAACAGGGGGCCACAGCAGAAGCGUUCACGUCGCAGCCCCUGUCAGAUUCUGGGGAAUCUGCGAAUUCUGCUGUACAUCUC [U54G U76C] as the variant, how does the self-cleavage read?
**A.** 0.98

**Q.** For UAACAGGGGGCCACAGCAGAAGCGUUCACGUCGCAGCCCCUGUCAGAUUCUGGGGAAUCUGCGAAUUCUGCUAUAUAUCUC [U54G G73A], which self-cleavage is on record?
**A.** 1.17

**Q.** For UAACAGGGGGCCACAGCAGAAGCGUUCACGUCGCAGCCCCUGUCAGAUUCUGGGGAAUCUGCGAAUUCUGCUGUAUACCUC [U54G U78C], which self-cleavage is on record?
**A.** 0.68

**Q.** With UAACAGGGGGCCACAGCAGAAGCGUUCACGUCGCAGCCCCUGUCAGAUUCUGGGGAAUCUGCGAAUUCUGCUGUAUAACUC [U54G U78A] as the variant, how does the self-cleavage read?
**A.** 1

**Q.** Which self-cleavage does the source give for UAACAGGGGGCCACAGCAGAAGCGUUCACGUCGCAGCCCCUGUCAGAUUCUGGUAAAUCAGCGAAUUCUGCUGUAUAUCUC [G55A U60A] here?
**A.** 0.44

**Q.** For UAACAGGGGGCCACAGCAGAAGCGUUCACGUCGCAGCCCCUGUCAGAUUCUGGUAAAUCCGCGAAUUCUGCUGUAUAUCUC [G55A U60C], which self-cleavage is on record?
**A.** 0.25

**Q.** Which self-cleavage does the source give for UAACAGGGGGCCACAGCAGAAGCGUUCACGUCGCAGCCCCUGUCAGAUUCUGGGGAACCUGCGAAUUCUGCUGUAUAUCUC [U54G U58C] here?
**A.** 0.39

**Q.** Which self-cleavage does the source give for UAACAGGGGGCCACAGCAGAAGCGUUCACGUCGCAGCCCCUGUCAGAUUCUGGGGAAACUGCGAAUUCUGCUGUAUAUCUC [U54G U58A] here?
**A.** 0.2

**Q.** For UAACAGGGGGCCACAGCAGAAGCGUUCACGUCGCAGCCCCUGUCAGAUUCUGGGGAAUCAGCGAAUUCUGCUGUAUAUCUC [U54G U60A], which self-cleavage is on record?
**A.** 0.37

**Q.** For UAACAGGGGGCCACAGCAGAAGCGUUCACGUCGCAGCCCCUGUCAGAUUCUGGGGAAUCCGCGAAUUCUGCUGUAUAUCUC [U54G U60C], which self-cleavage is on record?
**A.** 0.44

**Q.** Which self-cleavage does the source give for UAACAGGGGGCCACAGCAGAAGCGUUCACGUCGCAGCCCCUGUCAGAUUCUGGGGAAUCGGCGAAUUCUGCUGUAUAUCUC [U54G U60G] here?
**A.** 0.42

**Q.** With UAACAGGGGGCCACAGCAGAAGCGUUCACGUCGCAGCCCCUGUCAGAUUCUGGGGAAUCUGCGGAUUCUGCUGUAUAUCUC [U54G A64G] as the variant, how does the self-cleavage read?
**A.** 0.6

**Q.** Which self-cleavage does the source give for UAACAGGGGGCCACAGCAGAAGCGUUCACGUCGCAGCCCCUGUCAGAUUCUGGGGAAUCUGCGUAUUCUGCUGUAUAUCUC [U54G A64U] here?
**A.** 0.28

**Q.** For UAACAGGGGGCCACAGCAGAAGCGUUCACGUCGCAGCCCCUGUCAGAUUCUGGGGAAUCUGCGAAUUCUGCUGUAUAUCCC [U54G U80C], which self-cleavage is on record?
**A.** 0.67

**Q.** With UAACAGGGGGCCACAGCAGAAGCGUUCACGUCGCAGCCCCUGUCAGAUUCUGGUAAACCUGCGAAUUCUGCUGUAUAUCUC [G55A U58C] as the variant, how does the self-cleavage read?
**A.** 0.27

**Q.** With UAACAGGGGGCCACAGCAGAAGCGUUCACGUCGCAGCCCCUGUCAGAUUCUGGGGAAUCUGCGAGUUCUGCUGUAUAUCUC [U54G A65G] as the variant, how does the self-cleavage read?
**A.** 0.3

**Q.** Which self-cleavage does the source give for UAACAGGGGGCCACAGCAGAAGCGUUCACGUCGCAGCCCCUGUCAGAUUCUGGUAAAUCUGCGAUUUCUGCUGUAUAUCUC [G55A A65U] here?
**A.** 0.27

**Q.** For UAACAGGGGGCCACAGCAGAAGCGUUCACGUCGCAGCCCCUGUCAGAUUCUGGGGAAUCUGCGAAUUCUGCUGUUUAUCUC [U54G A75U], which self-cleavage is on record?
**A.** 0.96

**Q.** With UAACAGGGGGCCACAGCAGAAGCGUUCACGUCGCAGCCCCUGUCAGAUUCUGGCGAAUCUGCGAAUUCUGCGGUAUAUCUC [U54C U72G] as the variant, how does the self-cleavage read?
**A.** 0.87

**Q.** For UAACAGGGGGCCACAGCAGAAGCGUUCACGUCGCAGCCCCUGUCAGAUUCUGGCGAAUCUGCGAAUUCUGCCGUAUAUCUC [U54C U72C], which self-cleavage is on record?
**A.** 1.08

**Q.** Which self-cleavage does the source give for UAACAGGGGGCCACAGCAGAAGCGUUCACGUCGCAGCCCCUGUCAGAUUCUGGCGAAUCUGCGAAUUCUGCAGUAUAUCUC [U54C U72A] here?
**A.** 0.62

**Q.** Which self-cleavage does the source give for UAACAGGGGGCCACAGCAGAAGCGUUCACGUCGCAGCCCCUGUCAGAUUCUGGUAAAUCUGCGUAUUCUGCUGUAUAUCUC [G55A A64U] here?
**A.** 0.25

**Q.** Which self-cleavage does the source give for UAACAGGGGGCCACAGCAGAAGCGUUCACGUCGCAGCCCCUGUCAGAUUCUGGUAAAUCUGCGGAUUCUGCUGUAUAUCUC [G55A A64G] here?
**A.** 0.61

**Q.** For UAACAGGGGGCCACAGCAGAAGCGUUCACGUCGCAGCCCCUGUCAGAUUCUGGGGAAUCUGCGAACUCUGCUGUAUAUCUC [U54G U66C], which self-cleavage is on record?
**A.** 0.28

**Q.** With UAACAGGGGGCCACAGCAGAAGCGUUCACGUCGCAGCCCCUGUCAGAUUCUGGCGAAUCUGCGAAUUCUGCUGUAUAACUC [U54C U78A] as the variant, how does the self-cleavage read?
**A.** 1.03

**Q.** Which self-cleavage does the source give for UAACAGGGGGCCACAGCAGAAGCGUUCACGUCGCAGCCCCUGUCAGAUUCUGGCGAAUCUGCGAAUUCUGCUGUAUAGCUC [U54C U78G] here?
**A.** 1.07

**Q.** For UAACAGGGGGCCACAGCAGAAGCGUUCACGUCGCAGCCCCUGUCAGAUUCUGGCGAAUCUGCGAAUUCUGCUGUAUACCUC [U54C U78C], which self-cleavage is on record?
**A.** 0.97

**Q.** With UAACAGGGGGCCACAGCAGAAGCGUUCACGUCGCAGCCCCUGUCAGAUUCUGGUAAAUCUGCGAAUUCUGCUGUAUGUCUC [G55A A77G] as the variant, how does the self-cleavage read?
**A.** 0.96

**Q.** For UAACAGGGGGCCACAGCAGAAGCGUUCACGUCGCAGCCCCUGUCAGAUUCUGGGGAAUCUGCGAAUUUUGCUGUAUAUCUC [U54G C68U], which self-cleavage is on record?
**A.** 0.68
